We go through two molecules from US20140056907A1 (Regeneron, published 2014).

The target in one experiment is T1, mouse ASIC1a (mouse, UniProt Q6NXK8 1-526).
T1 construct: whole, on cells; Expressed on stably transfected 3T3 cells (3T3/mASIC1a); also called mASIC1a
T1 sequence (looked up): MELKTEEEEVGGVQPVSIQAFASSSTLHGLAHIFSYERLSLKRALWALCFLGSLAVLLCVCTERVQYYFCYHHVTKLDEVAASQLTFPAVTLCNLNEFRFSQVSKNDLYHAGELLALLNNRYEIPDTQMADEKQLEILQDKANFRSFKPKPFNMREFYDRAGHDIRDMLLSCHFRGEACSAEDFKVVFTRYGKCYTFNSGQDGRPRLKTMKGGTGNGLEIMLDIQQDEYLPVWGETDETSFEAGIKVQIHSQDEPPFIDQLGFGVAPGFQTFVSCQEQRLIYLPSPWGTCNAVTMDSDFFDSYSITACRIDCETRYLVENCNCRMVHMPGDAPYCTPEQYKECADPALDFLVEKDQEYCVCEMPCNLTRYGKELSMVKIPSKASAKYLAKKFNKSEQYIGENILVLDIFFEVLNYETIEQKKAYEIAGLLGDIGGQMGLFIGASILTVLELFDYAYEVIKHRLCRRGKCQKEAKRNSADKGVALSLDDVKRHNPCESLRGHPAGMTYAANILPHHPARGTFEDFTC
Put plainly: FACS, 3T3/mASIC1a cells. The text has this:
To further characterize anti-ASIC1 antibodies, their ability to bind either (a) a mouse fibroblast 3T3 cell line stably transfected to overexpress full length human ASIC1 (3T3/hASIC1; amino acids 1-528 of NCBI accession number NP_{—}001086.2 [SEQ ID NO:401]), (b) a 3T3 cell line stably transfected to over express full length mouse ASIC1a (3T3/mASIC1a; amino acids 1-526 of NCBI accession number NP_{—}033727), or (c) a ND7 cell line (ECACC, #92090903) that is a fusion cell line of mouse neuroblastoma and rat dorsal root ganglia that endogenously expresses rat ASIC1, was determined using flow cytometry (FACS). ND7 cells were differentiated by replacing the culture media with low-serum media (0.5% FBS) containing 1 mM dibutyryl-cAMP (Cat. No. sc-201567A, Santa Cruz Biotechnology, Inc., Santa Cruz, Calif.). FACS binding was tested for some antibodies on both undifferentiated ND7 cells and differentiated ND7 cells.
(§1) To perform the FACS binding experiments, adherent cells were collected using 1 mM EDTA in PBS, then washed, and re-suspended in cold PBS containing 5% FBS. For each binding experiment, each anti-ASIC1 antibody (at final concentrations of 10 nM of purified antibodies or 3.3 nM for antibody supernatants for binding to 3T3/hASIC1 cells and 5 nM for binding to 3T3/mASIC1a or ND7 cells) was added to 250,000 cells in 500 μL of PBS with 5% FBS. After incubation for 20 minutes at room temperature, a secondary antibody which recognizes human Fc (Cat. No. 109-136-098, Jackson ImmunoResearch Laboratories, Inc., West Grove, Pa.) or mouse Fc (Cat. No. 550826, BD Biosciences, San Jose, Calif.) and is conjugated to allophycocyanin, was then added to the cell mixture at a final concentration of 13.3 nM. After incubating for 20 minutes on ice, the cells were washed and resuspended in PBS containing 5% FBS, then sorted and analyzed on a flow cytometer (FACSCalibur, BD Biosciences, San Jose, Calif.) to determine relative binding by the candidate antibodies to the tested cell lines. Histograms of cells stained with anti-ASIC1 antibodies were compared with those of cells stained with secondary antibody alone. Percentage of ASIC1 signal over secondary antibody alone was calculated using FlowJo software (Tree Star, Ashland, Oreg.).
(In general: In flow cytometry, cells or beads pass a laser one at a time.)

In experiment [1] the target is T2, human ASIC1 (human, UniProt P78348 1-528).
T2 sequence: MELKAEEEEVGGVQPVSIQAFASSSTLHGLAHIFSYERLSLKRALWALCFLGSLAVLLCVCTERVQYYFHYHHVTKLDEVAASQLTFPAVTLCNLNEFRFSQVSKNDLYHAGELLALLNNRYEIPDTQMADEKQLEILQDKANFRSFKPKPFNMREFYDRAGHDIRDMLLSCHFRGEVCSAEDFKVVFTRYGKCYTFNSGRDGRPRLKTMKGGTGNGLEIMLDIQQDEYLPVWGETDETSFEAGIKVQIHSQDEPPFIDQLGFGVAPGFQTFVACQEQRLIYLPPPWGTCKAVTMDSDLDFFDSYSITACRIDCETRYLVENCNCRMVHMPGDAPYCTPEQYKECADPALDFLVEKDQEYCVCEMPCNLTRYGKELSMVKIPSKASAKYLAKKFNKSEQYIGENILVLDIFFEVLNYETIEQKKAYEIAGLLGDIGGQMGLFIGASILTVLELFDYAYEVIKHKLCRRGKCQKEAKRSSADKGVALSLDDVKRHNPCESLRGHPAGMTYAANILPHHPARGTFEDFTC
Kind of experiment: cell-based or functional assay.

The target of experiment [2] is T2, human ASIC1. Put plainly: cell-based or functional assay. The source holds these as a separate data set.
For experiment [3], the target named is T2, human ASIC1. Kind of experiment: FACS titration, 3T3/hASIC1 cells. Here is the method: as §1, with “([…]” for “(at final concentrations of 10 nM of purified antibodies or 3.3 nM for antibody supernatants for binding to 3T3/hASIC1 cells and 5 nM for binding to 3T3/mASIC1a”
For experiment [4], the target named is T2, human ASIC1. Put plainly: cell-based or functional assay. The source holds these as a separate data set.

Usually EC50 stands for the concentration at which the effect is half-maximal. A high value points to weaker potency.

B1: H1M7101N (antibody, mouse IgG1, V domains shown)
VH: EVQLLASGGGLVQTGGSLRLSCAASGFTFSSFAMSWVRQAPGKGLEWVSGISGSGGSTYYADSVKGRFTISRDNSKNTLYLQMNSLRAEDTAAYYCAKEAYKWQPWGQGIRVTVSS
VL: DIQMTQSPSTLSASVGDRVTITCRASQSISSWLAWYQQKPGKAPNLLIYKTSNLESGVPSRFSGSGSGTEFTLTISSLQPDDFATYYCQQYNSYSYTFGQGTKLEIK
For B1, the binding result in the experiment with mouse ASIC1a was “binds”. For the same molecule, the “Current inhibition (%) at 100 nM antibody, Q-Patch, pH 6.0” value in the experiment with human ASIC1 [1] is 97%. Moreover, the “apparent IC50, human ASIC1 current, Q-Patch” value with human ASIC1 [2] is under 1000 pM. For the same molecule, the EC50 in the experiment with human ASIC1 [3] turned out to be 720 pM.

B2: H1M6718N (antibody, mouse IgG1, V domains shown)
VH: EVQLLESGGGLVQPGGSLRLSCAASGFTFSSFAMSWVRQAPGKGLEWVSGISGSGGGTHYADSVKGRFTISRDNSKNMVYLQMNSLRAEDTAAYYCAKEAYKWQPWGQGTLVTVSS
VL: DIQMTQSPSTLSASVGDRVIITCRASQRISSWLAWYQQKPGKAPNLLIYKASILESGVPSRFSGSGSGTEFTLTISSLQPDDFATYYCQQYNSYSYTFGQGTKLEIK
For B2, in the experiment with human ASIC1 [4], the “FLIPR Dose Curve, pH 5.0 % Block” value stood at 48%; the “FLIPR Dose Curve, pH 5.5 % Block” value amounted to 78%; the “FLIPR Dose Curve, pH 5.5 IC50” value came to 0.6 nM. Further, the binding result in the experiment with mouse ASIC1a was “binds”. Besides, the “Current inhibition (%) at 100 nM antibody, Q-Patch, pH 6.0” value in the experiment with human ASIC1 [1] was determined as 100%. For the same molecule, in the experiment with human ASIC1 [2], the “apparent IC50, human ASIC1 current, Q-Patch” value was under 1000 pM and the “calculated IC50, inhibition of human ASIC1 current, Port-a-Patch” value is 860 pM. Besides, the EC50 with human ASIC1 [3] came out at 550 pM.
